Reference: patent US20260176319A1 (KALLYOPE, published 2026)
Starred links: 1 amine or outer side, 2 acyl side, 3 side chain; linkers in the order of their positions; H or OH if unused. Non-standard residues stand in square brackets, D forms with d. No end group written: not given here. *: point of attachment. Trp(7-F) = N[C@@H](Cc1c[nH]c2c(F)cccc12)C(=O)O; Trp(7-Me) = Cc1cccc2c(C[C@H](N)C(=O)O)c[nH]c12; C20 diacid = O=C(O)CCCCCCCCCCCCCCCCCCC(=O)*; d(γGlu) = O=C(O)[C@@H](CCC(=O)[*:2])N[*:1]; C18 diacid = O=C(O)CCCCCCCCCCCCCCCCC(=O)*; γGlu = O=C(O)[C@H](CCC(=O)[*:2])N[*:1]; Palmitoyl = CCCCCCCCCCCCCCCC(=O)*; 3Pal = N[C@@H](Cc1cccnc1)C(=O)O; Nle = CCCC[C@H](N)C(=O)O; AEEA = NCCOCCOCC(=O)O; Aib = CC(C)(N)C(=O)O; βAla = NCCC(=O)O; Sar = CNCC(=O)O

B1: Peptide 144 (peptide)
peptide: {C18 diacid}-[γGlu][AEEA][AEEA]FN[3Pal]WAV[βAla]HL[Nle]-NH2
SMILES: CCCC[C@H](NC(=O)[C@H](CC(C)C)NC(=O)[C@H](Cc1c[nH]cn1)NC(=O)CCNC(=O)[C@@H](NC(=O)[C@H](C)NC(=O)[C@H](Cc1c[nH]c2ccccc12)NC(=O)[C@H](Cc1cccnc1)NC(=O)[C@H](CC(N)=O)NC(=O)[C@H](Cc1ccccc1)NC(=O)COCCOCCNC(=O)COCCOCCNC(=O)CC[C@H](NC(=O)CCCCCCCCCCCCCCCCC(=O)O)C(=O)O)C(C)C)C(N)=O
B2: Peptide 134 (peptide)
peptide: {C18 diacid}-[γGlu][AEEA][AEEA]GNH[Trp(7-Me)]AV[dA]HL[Nle]R-NH2
SMILES: CCCC[C@H](NC(=O)[C@H](CC(C)C)NC(=O)[C@H](Cc1c[nH]cn1)NC(=O)[C@@H](C)NC(=O)[C@@H](NC(=O)[C@H](C)NC(=O)[C@H](Cc1c[nH]c2c(C)cccc12)NC(=O)[C@H](Cc1c[nH]cn1)NC(=O)[C@H](CC(N)=O)NC(=O)CNC(=O)COCCOCCNC(=O)COCCOCCNC(=O)CC[C@H](NC(=O)CCCCCCCCCCCCCCCCC(=O)O)C(=O)O)C(C)C)C(=O)N[C@@H](CCCNC(=N)N)C(N)=O
B3: Peptide 149 (peptide)
peptide: {C20 diacid}-[γGlu][AEEA][AEEA]GNHWAV[dA]HL[Nle]-NH2
SMILES: CCCC[C@H](NC(=O)[C@H](CC(C)C)NC(=O)[C@H](Cc1c[nH]cn1)NC(=O)[C@@H](C)NC(=O)[C@@H](NC(=O)[C@H](C)NC(=O)[C@H](Cc1c[nH]c2ccccc12)NC(=O)[C@H](Cc1c[nH]cn1)NC(=O)[C@H](CC(N)=O)NC(=O)CNC(=O)COCCOCCNC(=O)COCCOCCNC(=O)CC[C@H](NC(=O)CCCCCCCCCCCCCCCCCCC(=O)O)C(=O)O)C(C)C)C(N)=O
B4: Peptide 140 (peptide)
peptide: {C18 diacid}-[γGlu][AEEA][AEEA]FNHWAV[βAla]HL[Nle]-NH2
SMILES: CCCC[C@H](NC(=O)[C@H](CC(C)C)NC(=O)[C@H](Cc1c[nH]cn1)NC(=O)CCNC(=O)[C@@H](NC(=O)[C@H](C)NC(=O)[C@H](Cc1c[nH]c2ccccc12)NC(=O)[C@H](Cc1c[nH]cn1)NC(=O)[C@H](CC(N)=O)NC(=O)[C@H](Cc1ccccc1)NC(=O)COCCOCCNC(=O)COCCOCCNC(=O)CC[C@H](NC(=O)CCCCCCCCCCCCCCCCC(=O)O)C(=O)O)C(C)C)C(N)=O
B5: Peptide 138 (peptide)
peptide: {C20 diacid}-[γGlu][AEEA][AEEA]GNH[Trp(7-F)]AV[dA]HL[Nle][Sar]-NH2
SMILES: CCCC[C@H](NC(=O)[C@H](CC(C)C)NC(=O)[C@H](Cc1c[nH]cn1)NC(=O)[C@@H](C)NC(=O)[C@@H](NC(=O)[C@H](C)NC(=O)[C@H](Cc1c[nH]c2c(F)cccc12)NC(=O)[C@H](Cc1c[nH]cn1)NC(=O)[C@H](CC(N)=O)NC(=O)CNC(=O)COCCOCCNC(=O)COCCOCCNC(=O)CC[C@H](NC(=O)CCCCCCCCCCCCCCCCCCC(=O)O)C(=O)O)C(C)C)C(=O)N(C)CC(N)=O
B6: Peptide 145 (peptide)
peptide: {C18 diacid}-[γGlu][AEEA][AEEA]RNHWAV[dA]HL[Nle]-NH2
SMILES: CCCC[C@H](NC(=O)[C@H](CC(C)C)NC(=O)[C@H](Cc1c[nH]cn1)NC(=O)[C@@H](C)NC(=O)[C@@H](NC(=O)[C@H](C)NC(=O)[C@H](Cc1c[nH]c2ccccc12)NC(=O)[C@H](Cc1c[nH]cn1)NC(=O)[C@H](CC(N)=O)NC(=O)[C@H](CCCNC(=N)N)NC(=O)COCCOCCNC(=O)COCCOCCNC(=O)CC[C@H](NC(=O)CCCCCCCCCCCCCCCCC(=O)O)C(=O)O)C(C)C)C(N)=O
B7: Peptide 11 (peptide)
peptide: Palmitoyl-[d(γGlu)][AEEA][AEEA]GNHW[Aib]V[dA]HL[Nle]-NH2
SMILES: CCCCCCCCCCCCCCCC(=O)N[C@H](CCC(=O)NCCOCCOCC(=O)NCCOCCOCC(=O)NCC(=O)N[C@@H](CC(N)=O)C(=O)N[C@@H](Cc1c[nH]cn1)C(=O)N[C@@H](Cc1c[nH]c2ccccc12)C(=O)NC(C)(C)C(=O)N[C@H](C(=O)N[C@H](C)C(=O)N[C@@H](Cc1c[nH]cn1)C(=O)N[C@@H](CC(C)C)C(=O)N[C@@H](CCCC)C(N)=O)C(C)C)C(=O)O
B8: Peptide 147 (peptide)
peptide: {C18 diacid}-[γGlu][AEEA][AEEA]GQHWAV[dA]HL[Nle]-NH2
SMILES: CCCC[C@H](NC(=O)[C@H](CC(C)C)NC(=O)[C@H](Cc1c[nH]cn1)NC(=O)[C@@H](C)NC(=O)[C@@H](NC(=O)[C@H](C)NC(=O)[C@H](Cc1c[nH]c2ccccc12)NC(=O)[C@H](Cc1c[nH]cn1)NC(=O)[C@H](CCC(N)=O)NC(=O)CNC(=O)COCCOCCNC(=O)COCCOCCNC(=O)CC[C@H](NC(=O)CCCCCCCCCCCCCCCCC(=O)O)C(=O)O)C(C)C)C(N)=O
B9: Peptide 136 (peptide)
peptide: {C18 diacid}-[γGlu][AEEA][AEEA][AEEA][AEEA]GAH[Trp(7-F)]AV[dA]HL[Nle]-NH2
SMILES: CCCC[C@H](NC(=O)[C@H](CC(C)C)NC(=O)[C@H](Cc1c[nH]cn1)NC(=O)[C@@H](C)NC(=O)[C@@H](NC(=O)[C@H](C)NC(=O)[C@H](Cc1c[nH]c2c(F)cccc12)NC(=O)[C@H](Cc1c[nH]cn1)NC(=O)[C@H](C)NC(=O)CNC(=O)COCCOCCNC(=O)COCCOCCNC(=O)COCCOCCNC(=O)COCCOCCNC(=O)CC[C@H](NC(=O)CCCCCCCCCCCCCCCCC(=O)O)C(=O)O)C(C)C)C(N)=O
B10: Peptide 150 (peptide)
peptide: {C20 diacid}-[γGlu][AEEA][AEEA]GRHWAV[dA]HL[Nle]-NH2
SMILES: CCCC[C@H](NC(=O)[C@H](CC(C)C)NC(=O)[C@H](Cc1c[nH]cn1)NC(=O)[C@@H](C)NC(=O)[C@@H](NC(=O)[C@H](C)NC(=O)[C@H](Cc1c[nH]c2ccccc12)NC(=O)[C@H](Cc1c[nH]cn1)NC(=O)[C@H](CCCNC(=N)N)NC(=O)CNC(=O)COCCOCCNC(=O)COCCOCCNC(=O)CC[C@H](NC(=O)CCCCCCCCCCCCCCCCCCC(=O)O)C(=O)O)C(C)C)C(N)=O
B11: Peptide 139 (peptide)
peptide: {C18 diacid}-[γGlu][AEEA][AEEA]GDHW[dA]V[dA]HL[Nle]-NH2
SMILES: CCCC[C@H](NC(=O)[C@H](CC(C)C)NC(=O)[C@H](Cc1c[nH]cn1)NC(=O)[C@@H](C)NC(=O)[C@@H](NC(=O)[C@@H](C)NC(=O)[C@H](Cc1c[nH]c2ccccc12)NC(=O)[C@H](Cc1c[nH]cn1)NC(=O)[C@H](CC(=O)O)NC(=O)CNC(=O)COCCOCCNC(=O)COCCOCCNC(=O)CC[C@H](NC(=O)CCCCCCCCCCCCCCCCC(=O)O)C(=O)O)C(C)C)C(N)=O
B12: Peptide 137 (peptide)
peptide: {C18 diacid}-[γGlu][AEEA][AEEA][AEEA][AEEA]GRH[Trp(7-F)]AV[dA]HL[Nle][Sar]-NH2
SMILES: CCCC[C@H](NC(=O)[C@H](CC(C)C)NC(=O)[C@H](Cc1c[nH]cn1)NC(=O)[C@@H](C)NC(=O)[C@@H](NC(=O)[C@H](C)NC(=O)[C@H](Cc1c[nH]c2c(F)cccc12)NC(=O)[C@H](Cc1c[nH]cn1)NC(=O)[C@H](CCCNC(=N)N)NC(=O)CNC(=O)COCCOCCNC(=O)COCCOCCNC(=O)COCCOCCNC(=O)COCCOCCNC(=O)CC[C@H](NC(=O)CCCCCCCCCCCCCCCCC(=O)O)C(=O)O)C(C)C)C(=O)N(C)CC(N)=O
B13: Peptide 141 (peptide)
peptide: {C18 diacid}-[γGlu][AEEA][AEEA]RRHWAV[dA]HL[Nle]-NH2
SMILES: CCCC[C@H](NC(=O)[C@H](CC(C)C)NC(=O)[C@H](Cc1c[nH]cn1)NC(=O)[C@@H](C)NC(=O)[C@@H](NC(=O)[C@H](C)NC(=O)[C@H](Cc1c[nH]c2ccccc12)NC(=O)[C@H](Cc1c[nH]cn1)NC(=O)[C@H](CCCNC(=N)N)NC(=O)[C@H](CCCNC(=N)N)NC(=O)COCCOCCNC(=O)COCCOCCNC(=O)CC[C@H](NC(=O)CCCCCCCCCCCCCCCCC(=O)O)C(=O)O)C(C)C)C(N)=O
B14: Peptide 142 (peptide)
peptide: {C18 diacid}-[γGlu][AEEA][AEEA]GNHWAV[βAla]HL[Nle]-NH2
SMILES: CCCC[C@H](NC(=O)[C@H](CC(C)C)NC(=O)[C@H](Cc1c[nH]cn1)NC(=O)CCNC(=O)[C@@H](NC(=O)[C@H](C)NC(=O)[C@H](Cc1c[nH]c2ccccc12)NC(=O)[C@H](Cc1c[nH]cn1)NC(=O)[C@H](CC(N)=O)NC(=O)CNC(=O)COCCOCCNC(=O)COCCOCCNC(=O)CC[C@H](NC(=O)CCCCCCCCCCCCCCCCC(=O)O)C(=O)O)C(C)C)C(N)=O
B15: Peptide 143 (peptide)
peptide: {C18 diacid}-[γGlu][AEEA][AEEA][dF]NHWAV[dA]HL[Nle]-NH2
SMILES: CCCC[C@H](NC(=O)[C@H](CC(C)C)NC(=O)[C@H](Cc1c[nH]cn1)NC(=O)[C@@H](C)NC(=O)[C@@H](NC(=O)[C@H](C)NC(=O)[C@H](Cc1c[nH]c2ccccc12)NC(=O)[C@H](Cc1c[nH]cn1)NC(=O)[C@H](CC(N)=O)NC(=O)[C@@H](Cc1ccccc1)NC(=O)COCCOCCNC(=O)COCCOCCNC(=O)CC[C@H](NC(=O)CCCCCCCCCCCCCCCCC(=O)O)C(=O)O)C(C)C)C(N)=O

These binders were tested against human GRP receptor (human, UniProt P30550 1-384) (assay: cell-based or functional assay).
Sequence of human GRP receptor (P30550 whole entry): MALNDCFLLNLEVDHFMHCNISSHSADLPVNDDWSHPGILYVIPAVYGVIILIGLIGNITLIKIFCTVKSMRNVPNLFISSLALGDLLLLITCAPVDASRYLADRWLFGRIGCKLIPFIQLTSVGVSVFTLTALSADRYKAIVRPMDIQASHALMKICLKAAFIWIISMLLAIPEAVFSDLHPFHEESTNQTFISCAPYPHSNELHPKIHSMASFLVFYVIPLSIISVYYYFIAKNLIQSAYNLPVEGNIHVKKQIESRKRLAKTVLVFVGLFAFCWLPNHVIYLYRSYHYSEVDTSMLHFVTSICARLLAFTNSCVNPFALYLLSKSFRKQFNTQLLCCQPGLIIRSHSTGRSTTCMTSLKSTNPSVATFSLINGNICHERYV
B1 was tested, and the “hIP1 GRPR EC50” value was 5.99 nM. In the case of B2, the “hIP1 GRPR EC50” value is reported as over 10000 nM. For B3, the “hIP1 GRPR EC50” value was 1.89 nM. In the case of B4, the “hIP1 GRPR EC50” value is reported as 4.8 nM. {C20 diacid}-[γGlu][AEEA][AEEA]GNHWAV[dA]HL[Nle] [Peptide 148] was tested, and the “hIP1 GRPR EC50” value was 126 nM. In the case of B5, the “hIP1 GRPR EC50” value is reported as 81.8 nM. For B6, the “hIP1 GRPR EC50” value was 5.2 nM. B7 was tested, and the “hIP1 GRPR EC50” value was 3.2 nM. In the case of B8, the “hIP1 GRPR EC50” value is reported as 5.72 nM. For {C18 diacid}-[γGlu][AEEA][AEEA]GNHWAV[dA]HL[Nle] [Peptide 146], the “hIP1 GRPR EC50” value was 279 nM. With B9 the “hIP1 GRPR EC50” value was 40.5 nM. In the case of B10, the “hIP1 GRPR EC50” value is reported as 4.09 nM. In the case of B11, the “hIP1 GRPR EC50” value is reported as over 10000 nM. With B12 the “hIP1 GRPR EC50” value was 488 nM. In the case of B13, the “hIP1 GRPR EC50” value is reported as 7.72 nM. For B14, the “hIP1 GRPR EC50” value was 3.55 nM. With B15 the “hIP1 GRPR EC50” value was 10.7 nM.
